Results reported in patent publication US20240270866A1 (Alector, published 2024).

T1: mouse SIRPA overexpressed on CHO cells (mouse, UniProt P97797 32-513)
T1 construct: also called CHO-muSIRPA
T1 sequence: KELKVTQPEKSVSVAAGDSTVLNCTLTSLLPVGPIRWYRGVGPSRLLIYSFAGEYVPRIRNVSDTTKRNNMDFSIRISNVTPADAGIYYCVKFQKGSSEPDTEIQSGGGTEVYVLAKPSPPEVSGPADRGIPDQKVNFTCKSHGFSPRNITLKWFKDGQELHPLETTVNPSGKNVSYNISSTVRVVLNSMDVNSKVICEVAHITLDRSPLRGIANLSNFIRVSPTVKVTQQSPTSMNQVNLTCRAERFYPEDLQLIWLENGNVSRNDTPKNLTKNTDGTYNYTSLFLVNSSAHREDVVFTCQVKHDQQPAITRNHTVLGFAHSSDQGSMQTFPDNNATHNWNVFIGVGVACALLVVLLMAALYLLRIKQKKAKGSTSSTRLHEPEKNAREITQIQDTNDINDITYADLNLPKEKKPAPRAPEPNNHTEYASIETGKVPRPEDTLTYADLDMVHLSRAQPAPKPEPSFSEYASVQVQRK

T2: Mouse SIRPA D1 Fc (mouse, UniProt P97797 32-150, limits assumed)
T2 sequence: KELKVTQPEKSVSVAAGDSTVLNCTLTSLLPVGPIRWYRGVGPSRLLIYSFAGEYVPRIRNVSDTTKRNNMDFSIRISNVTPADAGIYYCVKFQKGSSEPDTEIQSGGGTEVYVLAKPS


Columns and labels:
[1] = target: T1, mouse SIRPA overexpressed on CHO cells; assay: flow, CHO-muSIRPA;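 for relative MFI: antibody binding measured by flow cytometry: cells stained with 1 ug/ml test antibody for 1 h on ice, detected with PE-labelled secondary antibody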
[2] = target: T3, human SIRPA overexpressed on CHO cells (human, UniProt P78324 31-504); assay: flow, CHO-huSIRPA;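 note: Anti-SIRPA antibodies applied at 1 µg/mL for 1 h on ice, binding read by flow cytometry using a PE-labelled secondary antibody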
T3 construct: also called CHO-huSIRPA
Protocol: Initial characterization of anti-SIRPA antibodies of the present disclosure involved determining their ability to bind cell lines overexpressing human or mouse SIRPA. Cells were harvested, plated at 10⁶/ml in a 96 well plate, washed, and incubated in 100 ul PBS containing 1 ug/ml Mab for 1 hour in ice. Cells were then washed twice and incubated in 100 ul PBS containing 5 ug/ml PE-conjugated secondary antibody for 30 minutes in ice. Cells were washed twice in cold PBS and acquired on a BD FACS Canto. Data analysis and calculation of mean fluorescence intensity (MFI) values or % positive cells was performed with FlowJo® (TreeStar) software version 10.0.7.

[3] = target: T1, mouse SIRPA overexpressed on CHO cells; assay: flow, CHO-muSIRPA; remark: listed apart in the source;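 for relative MFI: antibody binding measured by flow cytometry: cells stained with 1 ug/ml test antibody for 1 h on ice, detected with PE-labelled secondary antibody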
Human SIRPb D1 Fc = Human SIRPb D1 Fc (human, UniProt O00241 30-148, limits assumed); assay: ForteBio IgG avid;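 note: antibody IgG captured on AHQ biosensors, then 100 nM Fc-fused SIRP antigen applied for 3 min, followed by 3 min buffer dissociation, kinetics fitted to a 1:1 model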
Chain of Human SIRPb D1 Fc (O00241 30-148 limits assumed): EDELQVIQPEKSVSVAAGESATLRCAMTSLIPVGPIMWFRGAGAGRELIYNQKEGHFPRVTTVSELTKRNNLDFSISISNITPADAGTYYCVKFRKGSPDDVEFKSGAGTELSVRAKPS

Mouse SIRPA D1 Fc = target: T2, Mouse SIRPA D1 Fc; assay: ForteBio IgG avid;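 note: antibody IgG captured on AHQ biosensors, then 100 nM Fc-fused SIRP antigen applied for 3 min, followed by 3 min buffer dissociation, kinetics fitted to a 1:1 model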
Human SIRPA D1 Fc = target: T4, Human SIRPA D1 Fc (human, UniProt P78324 32-137); assay: ForteBio IgG avid;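 note: antibody IgG captured on AHQ biosensors, then 100 nM Fc-fused SIRP antigen applied for 3 min, followed by 3 min buffer dissociation, kinetics fitted to a 1:1 model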
T4 construct: not shown: human IgG1 Fc

Binder | relative MFI [1] [fold over background] | relative MFI [2] [fold over background] | binding result [3] | binding result (Human SIRPb D1 Fc) | binding result (Mouse SIRPA D1 Fc) | Kd (Human SIRPA D1 Fc) [nM] | Kd (Human SIRPb D1 Fc) [nM]
SA-37 (antibody, V domains shown, IgG) VH: QVQLQESGPGLVKPSQTLSLTCTVSGGSISSGGYYWSWIRQHPGKGLEWIGSIYYSGSTYYNPSLKSRVTISVDTSKNQFSLKLSSVTAADTAVYYCAREGAYSLYVNWFDPWGQGTLVTVSS VL: EIVLTQSPGTLSLSPGERATLSCRASQSVSSSFLAWYQQKPGQAPRLLIYGASSRATGIPDRFSGSGSGTDFTLTISRLEPEDFAVYYCQQYDGVPITFGGGTKVEIK | 0.464 | 1.27 | no binding (tested: 1 ug/ml) | no binding (tested: 100 nM) | no binding (tested: 100 nM) | 10.2 | –
SA-38 (antibody, V domains shown, IgG) VH: QVQLQESGPGLVKPSQTLSLTCTVSGGSISSGGYYWSWIRQHPGKGLEWIGSIYYSGSTYYNPSLKSRVTISVDTSKNQFSLKLSSVTAADTAVYYCAREGAYSLYVNWFDPWGQGTLVTVSS VL: EIVMTQSPATLSVSPGERATLSCRASQSVSSSLAWYQQKPGQAPRLLIFGASTRATGIPARFSGSGSGTEFTLTISSLQSEDFAVYYCQQYDNYPPITFGGGTKVEIK | 0.458 | 2.96 | no binding (tested: 1 ug/ml) | no binding (tested: 100 nM) | no binding (tested: 100 nM) | 3.81 | –
SA-43 (antibody, V domains shown, IgG) VH: QLQLQESGPGLVKPSETLSLTCTVSGGSISSSSYAWGWIRQPPGKGLEWIGSIYYSGSTYYNPSLKSRVTISVDTSKNQFSLKLSSVTAADTAVYYCARELETSRHDIWGQGTTVTVSS VL: DIQMTQSPSSVSASVGDRVTITCRASQGISSWLAWYQQKPGKAPKLLIYAASSLQSGVPSRFSGSGSGTDFTLTISSLQPEDFATYYCQQASAFPITFGGGTKVEIK | 0.479 | 0.56 | no binding (tested: 1 ug/ml) | no binding (tested: 100 nM) | no binding (tested: 100 nM) | 10.5 | –
SA-3 (antibody, V domains shown, IgG) VH: not shown VL: EIVLTQSPATLSLSPGERATLSCRASQSVSSYLAWYQQKPGQAPRLLIYDASNRATGIPARFSGSGSGTDFTLTISSLEPEDFAVYYCQQHDFWPPTFGGGTKVEIK | 0.518 | 0.595 | no binding (tested: 1 ug/ml) | no binding (tested: 100 nM) | no binding (tested: 100 nM) | 21.4 | –
SA-2 (antibody, V domains shown, IgG) VH: QVQLVESGGGVVQPGRSLRLSCAASGFTFSSYGMHWVRQAPGKGLEWVAVISYDGSNKYYADSVKGRFTISRDNSKNTLYLQMNSLRAEDTAVYYCAKDLGGGSGGYATSDYYYGMDVWGQGTTVTVSS VL: not shown | 0.527 | 98.3 | no binding (tested: 1 ug/ml) | no binding (tested: 100 nM) | no binding (tested: 100 nM) | 2.44 | –
SA-1 (antibody, V domains shown, IgG) VH: EVQLVESGGGLVQPGRSLRLSCAASGFTFGDYAMHWVRQAPGKGLEWVSGISWNSGSIGYADSVKGRFTISRDNAKNSLYLQMNSLRAEDTALYYCAKDAPYVGLDLWGRGTLVTVSS VL: not shown | 0.545 | 1.47 | no binding (tested: 1 ug/ml) | no binding (tested: 100 nM) | no binding (tested: 100 nM) | 20 | –
SA-39 (antibody, V domains shown, IgG) VH: QVQLVQSGAEVKKPGASVKVSCKASGYTFTSYYMVWVRQAPGQGLEWMGIINPSGGSTSYAQKFQGRVTMTRDTSTSTVYMELSSLRSEDTAVYYCAREGGYGYRAYPYGMDVWGQGTTVTVSS VL: DIQMTQSPSSLSASVGDRVTITCQASQDISNSLNWYQQKPGKAPKLLIYDASNLETGVPSRFSGSRSGTDFTFTISSLQPEDIATYYCQQVIILPLTFGGGTKVEIK | 0.571 | 1.47 | no binding (tested: 1 ug/ml) | – | no binding (tested: 100 nM) | 3.62 | 22.3
SA-47 (antibody, V domains shown, IgG) VH: QVQLVQSGAEVKKPGASVKVSCKASGYTFTSYYMHWVRQAPGQGLEWMGIINPSGGSTSYAQKFQGRVTMTRDTSTSTVYMELSSLRSEDTAVYYCAREVGVSGWEITYGMDVWGQGTTVTVSS VL: DIQMTQSPSSVSASVGDRVTITCRASQGISSWLAWYQQKPGKAPKLLIYAASSLQSGVPSRFSGSGSGTDFTLTISSLQPEDFATYYCQQISSYPITFGGGTKVEIK | 0.479 | 11.3 | no binding (tested: 1 ug/ml) | no binding (tested: 100 nM) | no binding (tested: 100 nM) | 15.4 | –

Further lines, results first:

relative MFI [1] [fold over background] | relative MFI [2] [fold over background] | binding result [3] | binding result (Human SIRPb D1 Fc) | binding result (Mouse SIRPA D1 Fc) | Kd (Human SIRPA D1 Fc) [nM] | Kd (Human SIRPb D1 Fc) [nM] | Binder
0.53 | 0.63 | no binding (tested: 1 ug/ml) | no binding (tested: 100 nM) | no binding (tested: 100 nM) | 23.6 | – | SA-59 (antibody, V domains shown, IgG) VH: QVQLQESGPGLVKPSETLSLTCTVSGGSISSYYWSWIRQPPGKGLEWIGSIYYSGSTNYNPSLKSRVTISVDTSKNQFSLKLSSVTAADTAVYYCARSGGSYSYLDVWGQGTMVTVSS VL: not shown
0.539 | 4.85 | no binding (tested: 1 ug/ml) | no binding (tested: 100 nM) | no binding (tested: 100 nM) | 22.2 | – | SA-60 (antibody, V domains shown, IgG) VH: EVQLVESGGGLVQPGGSLRLSCAASGFTFSSYSMNWVRQAPGKGLEWVSYISSSSSTIYYADSVKGRFTISRDNAKNSLYLQMNSLRAEDTAVYYCARTHKHFDYGMDVWGQGTTVTVSS VL: EIVLTQSPATLSLSPGERATLSCRASQSVSSYLAWYQQKPGQAPRLLIYDSSNRATGIPARFSGSGSGTDFTLTISSLEPEDFAVYYCQDRSNLPWTFGGGTKVEIK
0.557 | 7.09 | no binding (tested: 1 ug/ml) | no binding (tested: 100 nM) | no binding (tested: 100 nM) | 16.5 | – | SA-62 (antibody, V domains shown, IgG) VH: EVQLVESGGGLVQPGGSLRLSCAASGFTFSSYSMNWVRQAPGKGLEWVSYISSSSSTIYYADSVKGRFTISRDNAKNSLYLQMNSLRAEDTAVYYCARTHKHFDYGMDVWGQGTTVTVSS VL: DIQMTQSPSSLSASVGDRVTITCQASQDIANYLNWYQQKPGKAPKLLIYDASNLETGVPSRFSGSGSGTDFTFTISSLQPEDIATYYCQQYVNYWTFGGGTKVEIK
0.738 | 50.8 | no binding (tested: 1 ug/ml) | no binding (tested: 100 nM) | no binding (tested: 100 nM) | 4.31 | – | SA-58 (antibody, V domains shown, IgG) VH: QLQLQESGPGLVKPSETLSLTCTVSGGSISSSSYAWGWIRQPPGKGLEWIGSIYYSGSTYYNPSLKSRVTISVDTSKNQFSLKLSSVTAADTAVYYCARLPMGCGSGMDVWGQGTTVTVSS VL: not shown
